Data taken from paper PMC9056652.

T1: wt-Obe (tag-free obelin) (UniProt Q27709 1-195)
T1 sequence: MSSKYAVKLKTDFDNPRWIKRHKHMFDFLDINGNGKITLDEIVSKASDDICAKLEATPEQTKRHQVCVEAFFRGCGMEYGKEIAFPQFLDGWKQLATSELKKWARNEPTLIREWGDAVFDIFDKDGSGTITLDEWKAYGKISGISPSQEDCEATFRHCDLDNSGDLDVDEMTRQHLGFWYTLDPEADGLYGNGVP

B1: O6t (structured_RNA)
RNA: GGGAGACAAGAAUAAACGCUCAAGACGUGCGCGGGAAAGACCGACGCUCUACCCCUACAAGCU
modifications: 2'-F on all C and U
B2: O79 (structured_RNA)
RNA: GGGAGACAAGAAUAAACGCUCAAUGUGAAGUCGCAUUUAAUUGCUGGCGCCGUUUACUUGCUCUUCGACAGGAGGCUCACAACAGGC
modifications: 2'-F on all C and U
B3: O35 (structured_RNA)
RNA: GGGAGACAAGAAUAAACGCUCAAUAGGGUACGCGGACAGCGAUGGGACCGCGUUGCCAGCCCCUUCGACAGGAGGCUCACAACAGGC
modifications: 2'-F on all C and U
B4: O4t (structured_RNA)
RNA: GGGAGACAAGAAUAAACGCUCAACUAGGCUGUGCGCGGUGCCCUAUCUUAUCCGCGCCUCUCCU
modifications: 2'-F on all C and U
B5: O5 (structured_RNA)
RNA: GGGAGACAAGAAUAAACGCUCAAGUUGUACGCGGUUGGCAAUCCGCGUUGCUUUACGGGUUCCUUCGACAGGAGGCUCACAACAGGC
modifications: 2'-F on all C and U
B6: O79t (structured_RNA)
RNA: GGGAGACAAGAAUAAACGCUCAAUGUGAAGUCGCAUUUAAUUGCUGGCGCCGUUUACUUGCUC
modifications: 2'-F on all C and U
B7: O3t (structured_RNA)
RNA: GGGAGACAAGAAUAAACGCUCAAUGUGAAGUCGCACUUAGUUGCUGGCGUCGUUUACUUGCUC
modifications: 2'-F on all C and U

Columns and labels:
[1] = target: T1, wt-Obe (tag-free obelin); test: DRaCALA
[2] = target: T1, wt-Obe (tag-free obelin); test: solid-phase bioluminescent assay

Row | Binder | binding result [1] | Kd [1] | further results
1 | B1 | no binding | – | –
2 | B2 | – | 690 nM | –
3 | B3 | no binding | – | –
4 | B4 | no binding | – | –
5 | B5 | – | – | binding result [2]: binds
6 | B6 | – | 720 nM | –
7 | B7 | – | 1370 nM | –
